B1: SNAP91 (parent)
chain: FATASAAVPVSTSKPSSDLLDLQP
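Further: lentivirally expressed fusions sorted by FACS into six bins by GFP to DsRed ratio, PSI derived from sequencing read proportions per bin multiplied by bin number.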

The variants in this data set derive from B1. As to the kind of experiment: protein stability index of a GFP-peptide fusion (GPS, HEK-293T) (PSI 1-6); higher = more stable. To be noted: c terminus: a fixed tail appended.
For the variant FATASAAVPVSDSKPSSDLLDLQP [T12D], the protein stability index was determined as 4.04.

FATASAAVPVSCSKPSSDLLDLQP [T12C]: the protein stability index was found to be 2.58.

Turning to FATASAAVPVSASKPSSDLLDLQP [T12A], the protein stability index amounted to 4.36.

Regarding FATASAAVPVQTSKPSSDLLDLQP [S11Q], the protein stability index was 3.24.

Consider FATASAAVPVNTSKPSSDLLDLQP [S11N], for which the protein stability index was 3.76.

Regarding FATASAAVPVPTSKPSSDLLDLQP [S11P], the protein stability index was determined as 2.88.

As to FATASAAVPVKTSKPSSDLLDLQP [S11K], the protein stability index came out at 3.84.

Take FATASAAVPVRTSKPSSDLLDLQP [S11R]: the protein stability index was 3.77.

As for FATASAAVPVYTSKPSSDLLDLQP [S11Y], the protein stability index was found to be 2.17.

For FATASAAVPVLTSKPSSDLLDLQP [S11L], the protein stability index is 3.03.

On to FATASAAVPVCTSKPSSDLLDLQP [S11C], for which the protein stability index was 3.15.

Consider FATASAAVPVETSKPSSDLLDLQP [S11E], for which the protein stability index came out at 4.2.

Regarding FATASAAVPVITSKPSSDLLDLQP [S11I], the protein stability index was 3.15.

In the case of FATASAAVPVATSKPSSDLLDLQP [S11A], the protein stability index was 3.44.

FATASAAVPVFTSKPSSDLLDLQP [S11F]: the protein stability index was 1.7.

For FATASAAVPVVTSKPSSDLLDLQP [S11V], the protein stability index is 3.62.

FATASAAVPVTTSKPSSDLLDLQP [S11T]: the protein stability index came out at 3.71.

As to FATASAAVPVDTSKPSSDLLDLQP [S11D], the protein stability index worked out at 4.42.

Consider FATASAAVPVMTSKPSSDLLDLQP [S11M], for which the protein stability index is 3.5.

For FATASAAVPVHTSKPSSDLLDLQP [S11H], the protein stability index turned out to be 3.01.

Regarding FATASAAVPVGTSKPSSDLLDLQP [S11G], the protein stability index turned out to be 3.73.

Regarding FATASYAVPVSTSKPSSDLLDLQP [A6Y], the protein stability index is 1.96.

Regarding FATASWAVPVSTSKPSSDLLDLQP [A6W], the protein stability index came out at 4.07.

For FATASAIVPVSTSKPSSDLLDLQP [A7I], the protein stability index worked out at 3.14.

Consider FATASADVPVSTSKPSSDLLDLQP [A7D], for which the protein stability index worked out at 4.5.

In the case of FATASAMVPVSTSKPSSDLLDLQP [A7M], the protein stability index was 4.01.

As for FATASAFVPVSTSKPSSDLLDLQP [A7F], the protein stability index was 3.89.

Regarding FATASAVVPVSTSKPSSDLLDLQP [A7V], the protein stability index came to 3.05.

In the case of FATASAKVPVSTSKPSSDLLDLQP [A7K], the protein stability index amounted to 3.54.

FATASAHVPVSTSKPSSDLLDLQP [A7H]: the protein stability index came to 3.24.

As to FATASAPVPVSTSKPSSDLLDLQP [A7P], the protein stability index worked out at 3.66.

Regarding FATASALVPVSTSKPSSDLLDLQP [A7L], the protein stability index is 2.93.

Regarding FATASARVPVSTSKPSSDLLDLQP [A7R], the protein stability index worked out at 3.63.

Turning to FATASACVPVSTSKPSSDLLDLQP [A7C], the protein stability index stood at 3.07.

FATASASVPVSTSKPSSDLLDLQP [A7S]: the protein stability index amounted to 3.55.

FATASAEVPVSTSKPSSDLLDLQP [A7E]: the protein stability index was found to be 4.4.

FATASAGVPVSTSKPSSDLLDLQP [A7G]: the protein stability index turned out to be 3.72.

Consider FATASAQVPVSTSKPSSDLLDLQP [A7Q], for which the protein stability index worked out at 3.79.

For FATASANVPVSTSKPSSDLLDLQP [A7N], the protein stability index is 3.9.

In the case of FATASATVPVSTSKPSSDLLDLQP [A7T], the protein stability index was 3.24.

With FATASAAVQVSTSKPSSDLLDLQP [P9Q], the protein stability index was determined as 3.31.

On to FATASAAVGVSTSKPSSDLLDLQP [P9G], for which the protein stability index amounted to 2.3.

As to FATASAAVMVSTSKPSSDLLDLQP [P9M], the protein stability index is 2.29.

For the variant FATASAAVVVSTSKPSSDLLDLQP [P9V], the protein stability index is 2.24.

Take FATASAAVKVSTSKPSSDLLDLQP [P9K]: the protein stability index was 3.23.

As for FATASAAVFVSTSKPSSDLLDLQP [P9F], the protein stability index amounted to 1.93.

Consider FATASAAVLVSTSKPSSDLLDLQP [P9L], for which the protein stability index was 1.92.

For FATASAAVTVSTSKPSSDLLDLQP [P9T], the protein stability index stood at 3.73.

Take FATASAAVIVSTSKPSSDLLDLQP [P9I]: the protein stability index was found to be 1.87.

Consider FATASAAVDVSTSKPSSDLLDLQP [P9D], for which the protein stability index was 3.78.

For the variant FATASAAVEVSTSKPSSDLLDLQP [P9E], the protein stability index was determined as 3.99.

On to FATASAAVCVSTSKPSSDLLDLQP [P9C], for which the protein stability index is 2.27.

Regarding FATASAAVHVSTSKPSSDLLDLQP [P9H], the protein stability index amounted to 3.46.

For the variant FATASAAVSVSTSKPSSDLLDLQP [P9S], the protein stability index was 3.26.

As to FATASAAVRVSTSKPSSDLLDLQP [P9R], the protein stability index stood at 3.05.

For FATASAAVNVSTSKPSSDLLDLQP [P9N], the protein stability index was 3.75.

Consider FATASAAVAVSTSKPSSDLLDLQP [P9A], for which the protein stability index is 2.96.

Consider FATASAANPVSTSKPSSDLLDLQP [V8N], for which the protein stability index is 4.32.

On to FATASAALPVSTSKPSSDLLDLQP [V8L], for which the protein stability index is 3.37.

Turning to FATASAAFPVSTSKPSSDLLDLQP [V8F], the protein stability index worked out at 3.11.

With FATASAAIPVSTSKPSSDLLDLQP [V8I], the protein stability index was 3.93.

Consider FATASAAHPVSTSKPSSDLLDLQP [V8H], for which the protein stability index came out at 4.27.

Regarding FATASAARPVSTSKPSSDLLDLQP [V8R], the protein stability index is 3.79.

Consider FATASAATPVSTSKPSSDLLDLQP [V8T], for which the protein stability index was 4.12.

For FATASAASPVSTSKPSSDLLDLQP [V8S], the protein stability index stood at 3.87.

For FATASAAAPVSTSKPSSDLLDLQP [V8A], the protein stability index worked out at 3.58.

FATASAAGPVSTSKPSSDLLDLQP [V8G]: the protein stability index turned out to be 4.52.

In the case of FATASAAQPVSTSKPSSDLLDLQP [V8Q], the protein stability index came out at 4.2.

FATASAAKPVSTSKPSSDLLDLQP [V8K]: the protein stability index was 4.13.

Take FATASAAMPVSTSKPSSDLLDLQP [V8M]: the protein stability index came out at 3.02.

Consider FATASAACPVSTSKPSSDLLDLQP [V8C], for which the protein stability index was determined as 3.38.

Take FATASAAWPVSTSKPSSDLLDLQP [V8W]: the protein stability index was determined as 1.88.

With FATASAAYPVSTSKPSSDLLDLQP [V8Y], the protein stability index is 3.09.

Regarding FATASAADPVSTSKPSSDLLDLQP [V8D], the protein stability index was 4.64.

As for FATASAAEPVSTSKPSSDLLDLQP [V8E], the protein stability index turned out to be 3.99.

Regarding FATASAAPPVSTSKPSSDLLDLQP [V8P], the protein stability index was determined as 4.07.

As for FATASAAVPTSTSKPSSDLLDLQP [V10T], the protein stability index came out at 4.17.

With FATASAAVPSSTSKPSSDLLDLQP [V10S], the protein stability index was determined as 3.97.

Consider FATASAAVPMSTSKPSSDLLDLQP [V10M], for which the protein stability index is 3.55.

As to FATASAAVPGSTSKPSSDLLDLQP [V10G], the protein stability index was 3.37.

For FATASAAVPISTSKPSSDLLDLQP [V10I], the protein stability index was 3.39.

With FATASAAVPLSTSKPSSDLLDLQP [V10L], the protein stability index worked out at 3.63.

Regarding FATASAAVPASTSKPSSDLLDLQP [V10A], the protein stability index worked out at 3.87.

With FATASAAVPKSTSKPSSDLLDLQP [V10K], the protein stability index turned out to be 4.04.

With FATASAAVPESTSKPSSDLLDLQP [V10E], the protein stability index was found to be 4.23.

On to FATASAAVPRSTSKPSSDLLDLQP [V10R], for which the protein stability index was found to be 2.85.

With FATASAAVPPSTSKPSSDLLDLQP [V10P], the protein stability index turned out to be 4.36.

Turning to FATASAAVPNSTSKPSSDLLDLQP [V10N], the protein stability index is 3.94.

With FATASAAVPDSTSKPSSDLLDLQP [V10D], the protein stability index was found to be 4.18.

For the variant FATASAAVPYSTSKPSSDLLDLQP [V10Y], the protein stability index was 4.29.

Regarding FATASAAVPQSTSKPSSDLLDLQP [V10Q], the protein stability index turned out to be 4.61.

With FATASAAVPHSTSKPSSDLLDLQP [V10H], the protein stability index turned out to be 4.01.

As for FATASAAVPFSTSKPSSDLLDLQP [V10F], the protein stability index stood at 2.69.

FATASAAVPCSTSKPSSDLLDLQP [V10C]: the protein stability index came to 3.18.

The values are drawn from the supplement of paper PMC10567573.
